Measurements published in patent US20220024975A1 (ARROWHEAD PHARMACEUTICALS, published 2022).
Values joined by “and” are separate entries in the source; they are usually repeats but may differ in a detail not shown here. Identical values can stand only once. Non-standard residues stand in square brackets, D forms with d. No end group written: not given here. *: point of attachment. MeO‑PEG8 = N-terminal cap, methoxy-PEG with 8 ethylene glycol units; guanidinyl = N-terminal guanidinyl cap, N=C(N)*; Pentanoyl(5-guanidino) = NC(N)=NCCCCC(=O)*; Cha = N[C@@H](CC1CCCCC1)C(=O)O; Cit = NC(=O)NCCC[C@H](N)C(=O)O; Agp = N=C(N)NC[C@H](N)C(=O)O; Abu = CC[C@H](N)C(=O)O; Aib = CC(C)(N)C(=O)O; Sar = CNCC(=O)O

What follows are molecules tested against T1, αvβ6 integrin (human, UniProt P06756 31-1048; P18564 22-788) (assay: flow cytometry, Cy5-polymer conjugate on H2009 / CAPAN-2 cells).
T1 construct: whole, on cells; target is the endogenous integrin on αvβ6 positive-control cell lines; also called Integrin alpha-v beta-6
Description: B. αvβ6 ligand binding (flow cytometric analyses). To assess for specificity of binding of the αvβ6 ligands to the αvβ6 integrin, each αvβ6 ligand or negative control peptide was conjugated to a Cy5-labeled polymer (as described above) and evaluated for binding to cells. […] H2009 (human lung epithelial adenocarcinoma) and CAPAN-2 (human pancreas adenocarcinoma) cells served as the αvβ6 positive-control cell lines. Cells were detached from culturing flasks with Accutase, washed in PBS, and seeded into 5 ml polystyrene round-bottom tubes at 200,000 cells in 200 μl complete media (culturing media with supplements and fetal calf serum). αvβ6 ligand-polymer conjugates or no-ligand-polymer conjugates were added at 5 μg/ml (polymer-Cy5 concentration) to cells, mixed and incubated at 37° C. for 3 h. […] Samples were analyzed on a BD Biosciences Canto II cytometer equipped with a violet (405 nm), blue (488 nm) and red (633 nm) lasers.
Viable cells were initially gated as the SYTOX blue negative population on the C detector with the violet laser. These viable cells were then assessed for conjugate binding/uptake with the red laser as the Mean Fluorescence Intensity (MFI) of the Cy5 fluorophore. […] A specific MFI Ratio (sMFIr) for each αvβ6 ligand was determined by the formula: […]

T1 sequence (P06756 31-1048, chain 1 of 2): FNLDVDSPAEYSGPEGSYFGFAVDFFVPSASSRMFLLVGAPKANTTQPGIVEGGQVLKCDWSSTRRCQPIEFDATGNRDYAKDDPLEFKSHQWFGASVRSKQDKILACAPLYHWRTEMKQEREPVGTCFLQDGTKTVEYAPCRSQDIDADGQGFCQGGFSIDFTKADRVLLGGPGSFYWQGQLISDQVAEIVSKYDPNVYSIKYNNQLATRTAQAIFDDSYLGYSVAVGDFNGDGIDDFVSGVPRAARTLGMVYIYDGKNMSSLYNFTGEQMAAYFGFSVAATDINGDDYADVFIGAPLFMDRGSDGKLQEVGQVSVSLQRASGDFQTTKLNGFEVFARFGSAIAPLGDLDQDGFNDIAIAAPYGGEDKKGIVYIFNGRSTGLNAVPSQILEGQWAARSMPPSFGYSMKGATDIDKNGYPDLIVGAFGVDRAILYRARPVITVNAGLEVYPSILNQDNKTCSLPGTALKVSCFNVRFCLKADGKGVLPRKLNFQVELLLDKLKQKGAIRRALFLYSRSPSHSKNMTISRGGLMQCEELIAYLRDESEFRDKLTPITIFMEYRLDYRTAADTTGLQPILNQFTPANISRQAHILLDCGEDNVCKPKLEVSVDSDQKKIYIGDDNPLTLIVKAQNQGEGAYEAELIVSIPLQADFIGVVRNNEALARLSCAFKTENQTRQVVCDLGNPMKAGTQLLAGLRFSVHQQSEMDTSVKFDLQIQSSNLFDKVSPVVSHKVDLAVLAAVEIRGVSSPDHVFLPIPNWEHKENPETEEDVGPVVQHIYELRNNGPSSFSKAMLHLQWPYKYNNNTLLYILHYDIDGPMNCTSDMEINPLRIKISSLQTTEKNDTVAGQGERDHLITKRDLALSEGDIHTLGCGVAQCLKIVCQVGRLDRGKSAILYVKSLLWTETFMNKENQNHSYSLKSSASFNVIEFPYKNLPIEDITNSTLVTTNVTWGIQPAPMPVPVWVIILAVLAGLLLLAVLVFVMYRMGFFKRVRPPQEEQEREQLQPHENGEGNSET
T1 sequence (P18564 22-788, chain 2 of 2): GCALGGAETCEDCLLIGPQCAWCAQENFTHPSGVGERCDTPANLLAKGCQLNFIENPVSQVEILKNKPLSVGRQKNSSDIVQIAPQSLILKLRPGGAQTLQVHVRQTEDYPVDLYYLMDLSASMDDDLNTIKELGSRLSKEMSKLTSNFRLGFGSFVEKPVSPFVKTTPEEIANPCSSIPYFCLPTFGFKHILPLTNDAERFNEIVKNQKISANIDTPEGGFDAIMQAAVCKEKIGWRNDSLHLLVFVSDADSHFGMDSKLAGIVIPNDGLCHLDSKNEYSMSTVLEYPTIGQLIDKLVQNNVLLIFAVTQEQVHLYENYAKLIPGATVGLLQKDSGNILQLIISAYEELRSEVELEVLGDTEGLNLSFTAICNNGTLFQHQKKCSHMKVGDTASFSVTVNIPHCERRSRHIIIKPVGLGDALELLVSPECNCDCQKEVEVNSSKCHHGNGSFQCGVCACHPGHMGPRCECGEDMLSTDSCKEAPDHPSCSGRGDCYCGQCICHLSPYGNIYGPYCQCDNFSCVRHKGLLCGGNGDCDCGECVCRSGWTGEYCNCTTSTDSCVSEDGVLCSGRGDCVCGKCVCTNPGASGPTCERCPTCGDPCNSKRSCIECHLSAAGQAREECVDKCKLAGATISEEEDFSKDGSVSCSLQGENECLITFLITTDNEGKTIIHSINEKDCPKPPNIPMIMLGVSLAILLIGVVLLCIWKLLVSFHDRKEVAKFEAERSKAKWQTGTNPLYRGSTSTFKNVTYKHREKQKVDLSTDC

Row | Molecule | binding result
1 | RGELATLRQL (not fully specified; printed as RGELATLRQL (RGE control), Negative control; Tested as ligand-(PEG)8-K-HyNic conjugated to Cy5-labelled 1170-100B polymer) [RGELATLRQL (RGE control)] | no binding (tested: 5 µg/ml (polymer-Cy5 concentration))

These molecules were tested against T1, αvβ6 integrin (assay: flow cytometry, Cy5-polymer conjugate 5 µg/ml, H2009 cells).
Description: B. αvβ6 ligand binding (flow cytometric analyses). To assess for specificity of binding of the αvβ6 ligands to the αvβ6 integrin, each αvβ6 ligand or negative control peptide was conjugated to a Cy5-labeled polymer (as described above) and evaluated for binding to cells. […] H2009 (human lung epithelial adenocarcinoma) and CAPAN-2 (human pancreas adenocarcinoma) cells served as the αvβ6 positive-control cell lines. Cells were detached from culturing flasks with Accutase, washed in PBS, and seeded into 5 ml polystyrene round-bottom tubes at 200,000 cells in 200 μl complete media (culturing media with supplements and fetal calf serum). αvβ6 ligand-polymer conjugates or no-ligand-polymer conjugates were added at 5 μg/ml (polymer-Cy5 concentration) to cells, mixed and incubated at 37° C. for 3 h. Incubation at 37° C. facilitated ligand/receptor interaction which may result in static binding to the extracellular cell surface and/or internalized ligand/receptor complexes. The mixture was re-suspended at 1 h intervals. Following a 3 h incubation, cells were washed 2× with 4 ml chilled buffer (PBS-2% FCS) and re-suspended in 200 μl buffer containing 10 μM SYTOX blue stain for live/dead cell gating. Samples were analyzed on a BD Biosciences Canto II cytometer equipped with a violet (405 nm), blue (488 nm) and red (633 nm) lasers.
Viable cells were initially gated as the SYTOX blue negative population on the C detector with the violet laser. These viable cells were then assessed for conjugate binding/uptake with the red laser as the Mean Fluorescence Intensity (MFI) of the Cy5 fluorophore. Data analyses were performed with FlowJo v10.1 software. A specific MFI Ratio (sMFIr) for each αvβ6 ligand was determined by the formula: […]

Row | Molecule | MFI (specific MFI ratio, sample/no-ligand)
2 | CH3(CH2)1CO-RGDLAAbuLCitAib (peptide) | 4.2
3 | Ac-RGDLG[Abu]L[Cit][Aib] | 3.7
4 | Ac-RGDNMeLAAbuLCitAib (peptide) | 1
5 | Ac-RGDLAKL[Cit][Aib] | 3.6
6 | Ac-RGDLK[Abu]L[Cit][Aib] | 3.6
7 | Ac-RGDLAPL[Cit][Aib] | 2.8
8 | Ac-RGDL[Aib]TLRQL | 4
9 | Ac-RGDαMeLAAbuLCitAib (peptide) | 0.8 and 1
10 | Ac-RGDLA[Abu]LG[Aib] | 4
11 | Ac-RGDLATL[Cit]QL | 3.94
12 | CH3O(CH2CH2O)5CH2CH2CO-RGDLAAbuLCitAib (peptide) | 1.6
13 | Ac-RGDLA[Abu]L[Cit][Aib]L | 3.2 and 4.55 and 4.6
14 | CH3O(CH2CH2O)2CH2CH2CO-RGDLAAbuLCitAib (peptide) | 3.6
15 | Ac-RGDLAQL[Cit][Aib] | 3.6
16 | Ac-RGDLAFL[Cit][Aib] | 2
17 | Ac-RGDLA[Abu]L[Cit]P | 4
18 | CH3(CH2)4CO-RGDLAAbuLCitAib (peptide) | 3.9
19 | Ac-RGDLA[Abu]L[Cit]Q | 4.4
20 | Ac-RGDLA[Abu]L[Cit]K | 5.2
21 | Ac-RGDLA[Abu]L[Cit]F | 3.7
22 | CH3(CH2)3-RGDLAAbuLCitAib (peptide) | 4.7
23 | Ac-RGDLF[Abu]L[Cit][Aib] | 2.7
24 | CH3O(CH2CH2O)3CH2CH2CO-RGDLAAbuLCitAib (peptide) | 3.7
25 | CH3CH2-RGDLAAbuLCitAib (peptide) | 4.4

Row | Molecule | MFI (specific MFI ratio, sample/no-ligand)
26 | Ac-RGDLA[Abu]LF[Aib] | 3.6
27 | CH3(CH2)3CO-RGDLAAbuLCitAib (peptide) | 4.1
28 | Ac-RGαMeDLAAbuLCitAib (peptide) | 0.9 and 1
29 | Ac-RGDLQ[Abu]L[Cit][Aib] | 3.7
30 | Ac-[Cit]GDLATL[Cit]QL | 0.99
31 | Ac-RGDLA[Abu]LK[Aib] | 5.4
32 | Ac-R[Sar]DLA[Abu]L[Cit][Aib] | 2.6
33 | CH3(CH2)2-RGDLAAbuLCitAib (peptide) | 3.9
34 | Ac-RGDLE[Abu]L[Cit][Aib] | 2.6
35 | Ac-RGDLA[Abu]L[Aib] | 3.2
36 | Ac-RGDLP[Abu]L[Cit][Aib] | 1
37 | Ac-RGDLA[Abu]LRQL | 6.47
38 | CH3(CH2)4-RGDLAAbuLCitAib (peptide) | 4.1
39 | Ac-RGDLAGL[Cit][Aib] | 3.8
40 | {MeO‑PEG8}-RGDLATLRQL (not fully specified; printed as MeO-PEG8-RGDLATLRQL, Tested as ligand-(PEG)8-K-HyNic conjugated to Cy5-labelled 1170-100B polymer) [MeO-PEG8-RGDLATLRQL] | 2.5 ratio
41 | RGDLATLRQLEEEK(HyNic) (also: conjugated via HyNic to Cy5-labelled 1170-100B polymer, places HyNic at (1)..(1) as C-terminal, Conjugated to Cy5-labelled 1170-100B polymer; printed with its own K-(HyNic)) [RGDLATLRQLEEEK-(HyNic)] | 6.5 ratio
42 | Ac-RGDLAILRQL (not fully specified; printed as Ac-RGDLAILRQL, Tested as ligand-(PEG)8-K-HyNic conjugated to Cy5-labelled 1170-100B polymer) [Ac-RGDLAILRQL] | 6.22 ratio
43 | Ac-RGDLALLRQL (not fully specified; printed as Ac-RGDLALLRQL, Tested as ligand-(PEG)8-K-HyNic conjugated to Cy5-labelled 1170-100B polymer) [Ac-RGDLALLRQL] | 6.06 ratio
44 | Ac-RGDLAVLRQL (not fully specified; printed as Ac-RGDLAVLRQL, Tested as ligand-(PEG)8-K-HyNic conjugated to Cy5-labelled 1170-100B polymer) [Ac-RGDLAVLRQL] | 6.23 ratio
45 | guanidinyl-RGDLATLRQL (not fully specified; printed as Guanidinyl-RGDLATLRQL, Tested as ligand-(PEG)8-K-HyNic conjugated to Cy5-labelled 1170-100B polymer) [Guanidinyl-RGDLATLRQL] | 4.3 ratio
46 | Ac-RGDLATLRQL (not fully specified; printed as Ac-RGDLATLRQL, Tested as ligand-(PEG)8-K-HyNic conjugated to Cy5-labelled 1170-100B polymer) [Ac-RGDLATLRQL] | 4.7 ratio
47 | [Pentanoyl(5-guanidino)]GDLATLRQL (not fully specified (C-terminus); printed as des-amino-RGDLATLRQL; also: HyNic conjugated to Cy5-labelled 1170-100B polymer) [des-amino-…] | 1.1
48 | [Agp]GDLATLRQL (not fully specified; printed as Dap(guanidino)-GDLATLRQL, Tested as ligand-(PEG)8-K-HyNic conjugated to Cy5-labelled 1170-100B polymer) [Dap(guanidino)-GDLATLRQL] | 3.4 ratio

More lines, now with the values ahead:

Row | MFI (specific MFI ratio, sample/no-ligand) | Molecule
49 | 3.3 | Ac-RGDLA[Abu]L[Cit]
50 | 4.5 | Ac-RGDLβ3-hATLRQL (peptide)
51 | 1.6 | Ac-RGDLA[Abu]LP[Aib]
52 | 3.8 | CH3O(CH2CH2O)1CH2CH2CO-RGDLAAbuLCitAib (peptide)
53 | 4.8 | Ac-RGDLA[Abu]L[Cit]G
54 | 2.34 | Ac-RGDLβ3-hAAbuLCitAib (peptide)
55 | 4.3 | CH3(CH2)2CO-RGDLAAbuLCitAib (peptide)
56 | 4.6 | RGDLA[Abu]L[Cit][Aib]L
57 | 4.4 | Ac-RGDLA[Abu]LQ[Aib]
58 | 1.9 | Ac-RGDLA[Abu]LE[Aib]
59 | 2.6 | Ac-RGDLA[Abu]L
60 | 2.4 | Ac-RGDLAEL[Cit][Aib]
61 | 1.3 | Ac-RGDLAAbuNMeLCitAib (peptide)
62 | 4.7 and 3.8 | Ac-RGDLA[Abu]L[Cit][Aib]
63 | 1.6 | Ac-RGDL[Cha][Abu]L[Cit][Aib]
64 | 5.1 | Ac-RGDL[Cha]TLRQL
65 | 4 | Ac-RGDLA[Abu]L[Cit]E
66 | 4.7 ratio | RGDLATLRQ (not fully specified, Tested as ligand-(PEG)8-K-HyNic conjugated to Cy5-labelled 1170-100B polymer)
67 | 4.8 ratio | Me-RGDLATLRQL (not fully specified; printed as Me-RGDLATLRQL, Tested as ligand-(PEG)8-K-HyNic conjugated to Cy5-labelled 1170-100B polymer) [Me-RGDLATLRQL]
68 | 0.99 ratio | RGELATLRQL (not fully specified; printed as RGELATLRQL (RGE control), Negative control; Tested as ligand-(PEG)8-K-HyNic conjugated to Cy5-labelled 1170-100B polymer) [RGELATLRQL (RGE control)]
69 | 2.9 ratio | RGDLATL (not fully specified, Tested as ligand-(PEG)8-K-HyNic conjugated to Cy5-labelled 1170-100B polymer; also called natural peptide)
70 | 1.3 ratio | RGDLAT (not fully specified, Tested as ligand-(PEG)8-K-HyNic conjugated to Cy5-labelled 1170-100B polymer)

What follows are molecules tested against T1, αvβ6 integrin (assay: flow cytometry, Cy5-polymer conjugate 5 µg/ml, CAPAN-2 cells).

Row | Molecule | MFI (specific MFI ratio, sample/no-ligand)
71 | Ac-RGDαMeLAAbuLCitAib (peptide) | 0.9
72 | Ac-RGDLA[Abu]L[Cit][Aib]L | 7.7
73 | Ac-RGDLA[Abu]L | 7.9
74 | Ac-RGαMeDLAAbuLCitAib (peptide) | 1
75 | Ac-RGDLA[Abu]L[Aib] | 8.9
